Test results published in publication PMC6100598, “Characterization of Small Molecules Inhibiting the Pro-Angiogenic Activity of the Zinc Finger Transcription Factor Vezf1” (Molecules : A Journal of Synthetic Chemistry and Natural …, 2018).
Where “and” joins values, the source holds several entries; their conditions need not be identical. Equal entries are not always repeated. Values belong to the compound of their own block, whether it stands above or below them.

Experiments:
[1] = target: T1, Vezf1 (recombinant His-Vezf1) (Mus musculus, UniProt Q5SXC4); experiment: EMSA, inhibition of Vezf1 binding to […]-labelled DNA; details: 1 μM or 640 nM (Figure 5C) Vezf1, 25 nM 32P-DNA (HS4-FPIII site), 10 min pre-incubation, 10 mM MgCl2, Hepes 7.5, room temperature; also called effective blocking concentration
T1 construct: N-terminal His6 tag (pQE10), kept; E. coli XLBlue (MRF, T7); Ni-NTA; residue borders not given; native protein about 65 kDa, six C2H2 zinc fingers
T1 sequence (Q5SXC4 1-518): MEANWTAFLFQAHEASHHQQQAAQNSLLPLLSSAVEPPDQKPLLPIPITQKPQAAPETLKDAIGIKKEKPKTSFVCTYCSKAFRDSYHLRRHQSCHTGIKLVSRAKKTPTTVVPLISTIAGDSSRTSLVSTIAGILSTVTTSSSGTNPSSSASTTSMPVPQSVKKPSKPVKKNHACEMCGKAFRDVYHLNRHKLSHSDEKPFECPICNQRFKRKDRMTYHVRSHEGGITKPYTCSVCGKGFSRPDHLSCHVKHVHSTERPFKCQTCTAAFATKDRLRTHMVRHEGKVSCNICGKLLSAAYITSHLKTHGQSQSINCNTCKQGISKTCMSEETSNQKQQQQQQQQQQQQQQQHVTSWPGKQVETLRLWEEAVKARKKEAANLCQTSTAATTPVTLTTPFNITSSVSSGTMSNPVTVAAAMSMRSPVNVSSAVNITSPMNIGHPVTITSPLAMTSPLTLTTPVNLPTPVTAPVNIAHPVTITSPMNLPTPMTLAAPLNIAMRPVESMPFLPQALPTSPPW

[2] = target: T1, Vezf1 (recombinant His-Vezf1); experiment: EMSA, single dose; details: 640 nM Vezf1, 25 nM 32P-DNA, 10 min pre-incubation; residual DNA binding, not per cent inhibition; value without compound not given
[3] = target: T2, Vezf1 (His-Vezf1) (UniProt Q5SXC4); experiment: EMSA; details: 20 mM Hepes pH 7.5, 10 mM MgCl2, 50 mM NaCl, 1 mM EDTA, 5 ng/uL poly dA.dT, 10 min at room temperature, 5% acrylamide gel in 0.5x TBE
T2 sequence: T1 sequence (Q5SXC4 1-518)

Activity Concentration [1]: ~ 500 μM
Compound: O=C(O)c1ccccc1NC(c1ccccc1)c1ccc2cccnc2c1O (centres unmarked) [compound 1, NSC1012]

% DNA Bound in EMSA (500 μM) [2]: 22.56%
Compound: Cc1c(S(=O)(=O)O)ccc(N=Nc2c(O)c(C(=O)O)cc3ccccc23)c1Cl [compound 2, NSC16087]

% DNA Bound in EMSA (500 μM) [2]: 38.45%
Compound: NC(=O)c1nnn(Cc2cc(Cl)c(C(=O)c3ccc(Cl)cc3)c(Cl)c2)c1N [compound 3, NSC609974]

Compound: AGGCGCGCCCCGGTCCGGCGCTCCCCCCGCATCCCCGAGCCGGGGCGCGCCT (double strand) [HS4-FPIII Vezf1 site duplex]
binding signal ([3]; 500 uM NSC1012, 640 nM Vezf1): 7.38 % DNA bound | binding signal ([3]; 500 uM T4 (503-1-83), 640 nM Vezf1, T4 effective at 20 uM (IC50)): 5.94 % DNA bound | binding signal ([3]; 500 uM T6 (503-1-71 in text; 501-1-71 in Fig 5B legend), 640 nM Vezf1): 5.92 % DNA bound | binding signal [3]: 22.6 % DNA bound and 38.5 % DNA bound | Kd ([3]; no inhibitor, 25 nM DNA, 50-1000 nM protein): 0.64 µM
